Measured values from a protein production outcome set (Wang et al. 2014).

Experiment: label from the status in PepcDB records

MAKPVYHAITKYSPKKPVIVFVPSRKQTRLTAIDILTTCAADIQRQRFLHCTEKDLIPYLEKLSDSTLKETLLNGVGYLHEGLSPMERRLVEQLFSSGAIQVVVASRSLCWGMNVAAHLVIIMDTQYYNGKIHAYVDYPIYDVLQMVGHANRPLQDDEGRCVIMCQGSKKDFFKKFLYEPLPVESHLDHCMHDHFNAEIVTKTIENKQDAVDYLTWTFLYRRMTQNPNYYNLQGISHRHLSDHLSELVEQTLSDLEQSKCISIEDEMDVAPLNLGMIAAYYYINYTTIELFSMSLNAKTKVRGLIEIISNAAEYENIPIRHHEDNLLRQLAQKVPHKLNNPKFNDPHVKTNLLLQAHLSRMQLSAELQSDTEEILSKAIRLIQACVDVLSSNGWLSPALAAMELAQMVTQAMWSKDSYLKQLPHFTSEHIKRCTDKGVESVFDIMEMEDEERNALLQLTDSQIADVARFCNRYPNIELSYEVVDKDSIRSGGPVVVLVQLEREEEVTGPVIAPLFPQKREEGWWVVIGDAKSNSLISIKRLTLQQKAKVKLDFVAPATGAHNYTLYFMSDAYMGCDQEYKFSVDVKEAETDSDSD
protein production: failed

MIIADNIKQFHSIRNSLIKQQKIGFVPTMGALHNGHISLIKKAKSENDVVIVSIFVNPTQFNNPNDYQTYPNQLQQDIQILASLDVDVLFNPSEKDIYPDGNLLRIEPKLEIANILEGKSRPGHFSGMLTVVLKLLQITKPNNLYLGEKDYQQVMLIKQLVKDFFINTKIIVCPTQRQPSGLPLSSRNKNLTSTDIEIANKIYEILRQDDFSNLEELTNKINSTGAKLQYIQKLNNRIFLAFYIGKVRLIDNFLKETGPSC
protein production: not failed

MVKVYAPASSANMSVGFDVLGAAVTPVDGTLLGDVVSVEAADHFRLHNLGRFADKLPPEPRENIVYQCWERFCQALGKTIPVAMTLEKNMPIGSGLGSSACSVVAALVAMNEHCGKPLNDTRLLALMGELEGRISGSIHYDNVAPCFLGGMQLMIEENGIISQ
protein production: failed

ILHRDADFLLRALQPDDFVRTSRYENANREHLAPWEPLRDPGYFSVDNARARTLLQVASMDEGEALLLLLLDPDDGEVLGRCSYTNIVRGVFQACHLGFSLAAAAQGRGLMARALRVANRYCFEQLGLHRIMASHLPRNARSERLLESLGFEKEGYARAYLKIAGVWEDHVLR
protein production: failed

MKPALHTVTSAPALPAYVATGNECALFEHAWRHQLPVLLKGPTGCGKTRFVAHMAARLGLPLHTVACHDDLTAADLTGRYLLKGGDTVWTDGPLTRAVREGGICYLDEVVEARKDVTVVLHPLTDDRRILPLERTGEELAAPKSFMLVVSYNPGYQTLLKALKPSTRQRFVAIEFGFLAPEQEIAVVSAESGLPPDRVRPLVALAGRLRALRGHDLEEGVSTRLVVYCATLIAAGTPIADAVLAGMIEPLTDDSDVKAALLDVARAVIG
protein production: failed

MDRVMRDDLHIMPPPAPLAMQAQDFSAGFRDALAPPDSPQRDVAPWRVLAFSPAMAATLALVWLMGDWFSDSGISVLEAVLLALISFNFFWIAFAASTVLLGMLSLSRQPARARAGRAEPLKVALLMPVYNEVPWYVLGNARTMLEELKARGGQHQYAMFILSDTRDDAIAAQEQASVEALRTTLAPDLALYYRRRVENTDRKVGNIADWVAGWGGAWDAMLVLDADSLMTGRAIARLTDALARDPGAGLIQSFPQLIGAQSVFARMQQFANGVYGAAFAEGMARWCGQEGNYWGHNAIIRTAAFANCAGLPKLRSLSGREKLIMSHDFVEAGLLRRAGWSVRFLPRIRGSYEETPPTLIDHVLRDRRWCQGNLQHLNLLNARGFRSVSRFHMFHGAIGYLMSPIWFALLVMWALIGHGQDGSVLQYFSPDNPLFPQWPEMTEGRHVLIIVVMYAMLLLPKLLGVLALPLSGAHYSDFGGAGRFLLSFLSEVVLSILYAPILMVQQMIAVFRTFLGIQKGWSPQARDGGTYGLGTLVKCHMLETLSGLALGTGIALGLVSVWLAPIALSLALAVPLSALSGVSAGTARRLIGMREEFREPAITRSARAYRNELKTLLERGSRIHPAE
protein production: failed

MYFGQNEACKKNHVVIHNELGPGIDLNIACRQFSIERTPSMFHTLKYKDPFYIIEFEDNNQLPHGERWYCLLSHGTRPKYWYDIEVYRQGYYPSCGQLRSWIAKQDGIWFTRRYDSPPGHVLNWKIQ
protein production: failed

MTPPPAPKTPSTLLRRHLGRAVGAAYLAAATAPGPGMWLRHPHRIAVVGLPDLSLNTAPFLLSLVLFTAGLQVPPRDLGRLVGRPAALLTGLALHLLAPLLIVPGVAFALRQSPDSDGGSGLVAAMILVVAMPVAAGATVWTGAGEGDQSTTVGLVLASTLASPLTVPFTVTALCPLLSADYADTLAGAARIAGSGFALTGVVLPCAAGLVARLALPRRALDALLHAAVPTAALGSLLLTYVNASGVLGPFLTRPRPVLLAAALAVAATVCGLSFALGRITARVLRLDAHAGASVTLACGMNNSSASAVLITTALPDRPQVLLPVLAYGLLQKVAAGRVVRGGHHSGRGA
protein production: failed

MAGGLGKCSKIRHIVRLRQMLRRWRDQARMSSSFSRCVPSDVPSGHVAVYVGSSCRRFVVRATYLNHPVLRNLLVQAEEEFGFVNQGPLVIPCEESVFEESIRFISRSDSTRSRRFTCPDDFQKNCHVVGIRSKLDLWIESRPLLHGVTEKAVW
protein production: failed

MHLVNIRNQPLGNTIIQVLGVMAFGLFAAVVYMKTSNLIFAIVVHAMNDFMAIMASSGSLSSQQTNPLTILYEWFIFGTLAFALFYTGWTQREKFIAAIQERSPQLTARKLPTLAQSSTFRRIFALVSMIYGILILPTMLLFSKLSTSAGSRAEIANKALPIYLLFLLGIALYIFLIVFFDFHLGNLCWLLLPYIGGPVFALIALVNGARPLTEKTNQSKTINNKTPN
protein production: failed

MQITIKVLKGKDCTIEVAPTSTILEVKHQIEAELQISATNQKLLLLGRPLNNEQTIASYPNIKEGTKLNLVVIKP
protein production: failed

HIQKGIAGEQKACAFLEQQGYKIIEKNLRIGKGEIDLIAVHNNCMCFIEVKYRKHNRYGFPEEFVTQKKLLKIQETAEAYIYTVNWQGRIRFDVVAITGEELPVHL
protein production: failed

MPLLIITTILWAFSFSLIGEYLAGQVDSWFSAMFRLTAAAVVFLPFLRWRGYAPRVIFLYMLVGACQLGIMYLFVFQAYLYLTVPEFLLFTVMTPLYVTLIYDLLARHRLRWGYVMSALLAVFGAAVIHYHGVSEHFWWGFLLVQVANVCFASGQVGYKRLMEIHPVPQHCAFSWFYLGAAIVTIAAWLLFGNMDKLPTTTLQWGVLAWLGIGASGVGYFMWNYGATQVDAGTLSIMNNFHVPAGLLVNFAIWHKTPDWLSFIVGTAIITSSLWVHQHWVVKRPLRTANDHKRADAQNE
protein production: failed

MIIRNGCLEDLQQVISIEQINFSEAEAASKKAMQERLTIMTDTFLVAEINGRLAGYIEGPVIKGRYLTDDLFHKVSEFPVRVGGFIGITSLSIHPDFKGQGIGTALLAAMKDLVVSQERDGISLTCHDDLISFYEMNGFKDEGESDSKHGGSLWYNMIWNNPTRSIC
protein production: failed

APGTLVLAGTPIGDITDAPPRLAQELAGADVVAAEDTRRLRRLTQALGVQPAGRVVSYFEGNEAARTPELVEALLDGSRVLLVTDAGMPSVSDPGYRLVAAAVAKDIRVTAVPGPS
protein production: failed

MNQEFFMLSQAMVEHLNEQINLEFFSSNLYLQMSAWCEDKGFDGAAEFLRAHAVEEMQHMQRLFTYVSETGALPILGAIAAPRHDFASLGEVFRETYQHEQKITQQINKLAHVAFTSQDYSTFNFLQWYVAEQHEEEKLFKGILDKLELVGEDGKALFFIDKDLAALAKKGSSSVMDAPAE
protein production: not failed

MREDNPNWFLRWEEELPSPEELIPISQTLITPHLALAFQIGSPNHHLGSKRTTAIYHQKLQSSTTPTTPTPTPPPMMMNSDFGGGDSTDLGSGSIGGEPARTLKRPRLVWTPQLHKRFVDAVGHLGIKNAVPKTIMQLMSVEGLTRENVASHLQKYRLYLRRMQGGNGNGITGGHVIVSDSATDRLFASSPVPAHFLSPDYLMPPLEHSYMGKHVITQQNQVVRNLRYEDSEYGHGSMKMLKLFPAGN
protein production: not failed

MTKAETSIGVFYVSEYGYSDRLAQAIINGITKTGVGVDVVDLGAAVDLQELRELVGRCTGLVIGMSPAASAASIQGALSTILGSVNEKQAVGIFETGGGDDEPIDPLLSKFRNLGLTTAFPAIRIKQTPTENTYKLCEEAGTDLGQWVTRDRSIKAMKSLGLEHHHHHH
protein production: not failed

MAPKAGKKPAEKKPAEKAPAEEEKVAEKAPAEKKPKAGKKLPKEAVTGGVEKKKKRVKKSTETYKIYIFKVLKQVHPDIGISSKAMGIMNSFINDIFEKLAQEASKLARYNKKPTITSREIQTAVRLVLPGELAKHAVSEGTKAVTKFTSS
protein production: failed

MTKYGVVGTGYFGAELARFMSKVEGAKITAIYDPVNAAPIAKELNCVATATMEALCTHPDVDCVIIASPNYLRKAPVIAAAKAGKHVFCEKPIALNYQDCKDMVDACKEAGVTFMAGHVMNFFHGVRHAKALIKAGEIGEVTQVHTKRNGFEDVQDEISWKKIRAKSGGHLYHHIHELDCTLFIMDETPSLVSMAAGNVAHKGEKFGDEDDVVLITLEFESGRFATLQWGSSFHYPEHYVLIEGTTGAILIDMQNTAGYLIKAGKKTHFLVHESQAEDDDRRNGNISSEMDGAIAYGKPGKRTPMWLSSIMKLEMQYLHDVINGLEPGEEFAKLLTGEAATNAIATADAATLSSNEGRKVKLTEILG
protein production: failed

MVLEHCRDAIESHGVETDIISLRGMKIESCRACLSCAKKHRCRIDDGLNDIIDRIRDSEGFIVATPVYFGTARGDLMAALQRIGMVSRASDGFLSWKVGGPIAVARRGGHTATIQELLMFYFINDMIVPGSTYWNMVFGWAPGEVEDDSEGIETIRRFGENVAELIKRINGGSLEHHHHHH
protein production: failed

MKIFRNPPLVMSGLTLGLFALGNLLKLYHPSLRHLLSIIALLLYLFLILSILKNLSQALEQIKHPLIASIFPTFFMSGMLLAGYIQTFPFLEDWVTLISLTIWWLAFLGNAGLIAYFTIKFVIPFHWEHVFPSWSVLYVGIAVATLTAPISGQYILGQIIFWTCLLLTLLILPLMTIKAYCIGLPETAKPNICTFCAPLSLLLAGYLKTFPPEQSPNTNFVWLLLLASQLLYFFVVLQLPVLLKREFNPGFSAFTFPFAISATALRSAGSYLHLQLPLFQLLVKLEELLASILVLFILYSYLRFLSKQEDLPSN
protein production: failed

MLVAPFASQLPFVEETLHSSYQALQWGKNIFAIAHKTLSARLLNTVFPTEERTQPLSPELQAWLKERYEALLQQDWQDAAAGFYPATLLFDAPWEEFLRFYPLLLLDLPQMWQRARSRQFQEFAHNVRLEDYPQYYRQNFHYQTDGYLSDTSANLYDIQVELLFGGTADAMRRRVIAPIAQQVVAHPPTPPLRILDVACGTGRTLKQLRYAFPGAVLFGLDLSPAYLRKANALLATQTGALPQLIQGNAESLPYVDSYFSAITCVFLFHELPAPVRQNVIHECARVLQPGGIFVICDSIQSLDSPEQRPMMENFANLFHEPFYRNYIEDDLNLRLEKAGLVVKEVQHHFMSKYWVAVKPSLEHHHHHH
protein production: failed

KNYDLSDLPGPPSKPQVTDVTKNSVTLSWQPGTPGTLPASAYIIEAFSQSVSNSWQTVANHVKTTLYTVRGLRPNTIYLFMVRAINPQGLSDPSPMSDPVRTQD
protein production: not failed

MTGSWLETLLLPFTVPFLRDAMIIALLVAVPTALLSCFLVLKGWALMGDAISHAVLPGVVLAYVAGLPLGVGAFAAGLGCALVTGYLKDNSRIKQDTVMGVVFSGMFGLGIVLHTSIRTDVHLDHILFGDMLGVGSSDLLESGLIALLVVGAIALKGRDLLLHAFDPQQARAIGLPVGLLHYGLLCLLALTIVGALKATGILLTVALLIGPGAIAFLFTRRFSSMLLAAVVISSLASVLGVYISLFLDSAPAPTIVLLLTLTFIAAFMVSRQRDRQRARGVDRPV
protein production: failed
